In EP3964526A1:

Experiments:
[1] = target: recombinant human TNF (hTNF) (human) (UniProt P01375); test: cell-based or functional assay; details: scale: ratio EC50 ESBA105 / EC50 test, in mass units [ng/ml]
[2] = target: VEGF (as used in the VEGFR competition ELISA); test: competition ELISA against hVEGR1, EC50 ratio to reference Luc
[3] = target: recombinant human VEGF165 (PeproTech EC Ltd.) (human) (UniProt P15692); test: SPR BIAcore T100, hVEGF165 amine-coupled on CM4 chip, scFv as analyte
Sequence of recombinant human VEGF165 (PeproTech EC Ltd.) (human) (P15692 other isoform, or with tags, fused parts or gaps limits assumed): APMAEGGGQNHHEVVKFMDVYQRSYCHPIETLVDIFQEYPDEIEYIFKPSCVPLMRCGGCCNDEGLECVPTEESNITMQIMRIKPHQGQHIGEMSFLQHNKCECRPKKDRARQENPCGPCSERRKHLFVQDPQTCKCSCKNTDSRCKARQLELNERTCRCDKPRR

Sequence of recombinant human TNF (hTNF) (human) (P01375 77-233 limits assumed): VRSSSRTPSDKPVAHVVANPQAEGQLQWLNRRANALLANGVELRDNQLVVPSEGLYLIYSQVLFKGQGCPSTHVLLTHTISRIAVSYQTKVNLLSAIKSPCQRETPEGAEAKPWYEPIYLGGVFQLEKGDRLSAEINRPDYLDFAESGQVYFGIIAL
Sequence of VEGF (as used in the VEGFR competition ELISA) (P15692 whole entry): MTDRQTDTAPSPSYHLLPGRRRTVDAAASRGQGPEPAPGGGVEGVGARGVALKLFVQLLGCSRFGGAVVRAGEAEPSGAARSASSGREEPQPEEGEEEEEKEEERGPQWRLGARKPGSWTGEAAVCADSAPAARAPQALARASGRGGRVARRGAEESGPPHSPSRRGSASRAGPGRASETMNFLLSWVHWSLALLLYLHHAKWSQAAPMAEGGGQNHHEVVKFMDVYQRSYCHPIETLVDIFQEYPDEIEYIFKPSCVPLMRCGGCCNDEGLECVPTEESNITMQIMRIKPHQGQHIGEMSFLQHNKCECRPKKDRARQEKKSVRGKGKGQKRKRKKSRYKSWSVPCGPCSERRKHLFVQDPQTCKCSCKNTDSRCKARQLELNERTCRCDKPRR

L929* [EC50-E105 / EC50-X] [1] | Binder | further results
5.2 | EP35_max (scFv, from another filing) scFv: EIVMTQSPSTLSASVGDRVIITCQASQSISNLLAWYQQKPGKAPKLLIVAASKLASGVPSRFSGSGSGTEFTLTISSLQPDDFATYYCQQGWSHTNVDNTFGQGTKLTVLGGGGGSGGGGSGGGGSGGGGSEVQLVESGGGSVQPGGSLRLSCTASGFSFSVGYWICWVRQAPGKGLEWVACIDAGTSGGTYYATWAKGRFTISKDTSKNTVYLQMNSLRAEDTATYYCARGVSSNGYYFKLWGQGTTVTVSS | 
1.1 | EP6_max (scFv, from another filing) scFv: EIVMTQSPSTLSASVGDRVIITCQASESIYSGLAWYQQKPGKAPKLLIYQASTLASGVPSRFSGSGSGTDFTLAISSLQPDDFATYYCQQGFGTSNVENPFGQGTKLTVLGGGGGSGGGGSGGGGSGGGGSEVQLVESGGGLVQPGGSLRLSCTVSGFSLSRYGVSWVRQAPGKGLEWVGTIGEAGRAYYANWARSRSTISRDTSKNTVYLQMNSLRAEDTAVYYCARGEVFNNGWGAFNIWGQGTLVTVSS | 
6.4 | EP43_max (scFv, from another filing) scFv: EIVMTQSPSTLSASVGDRVIIKCQASQSISDWLAWYQQKPGKAPKLLIYGASRLASGFPSRFSGSGSGAEFTLTISGLEPADFATYYCQQGWSDSYVDNLFGQGTKLTVLGGGGGSGGGGSGGGGSGGGGSEVQLVESGGGLVQPGGSLRLSCTVSGFSLSSGAMSWVRQAPGKGLEWVGVIISSGATYYASWAKGRFTISKDTSKNTVYLQMNSLRAEDTAVYYCARGGPDDSNSMGTFDPWGQGTLVTVSS | 
10.5 | EP34_max (scFv, from another filing) scFv: EIVMTQSPSTLSASLGDRVIITCQSSQSVYGNIWMAWYQQKSGKAPKLLIYQASKLASGVPSRFSGSGSGAEFSLTISSLQPDDFATYYCQGNFNTGDRYAFGQGTKLTVLGGGGGSGGGGSGGGGSGGGGSEVQLVESGGGLVQPGGSLRLSCTASGFTISRSYWICWVRQAPGKGLEWVACIYGDNDITPLYANWAKGRFPVSTDTSKNTVYLQMNSLRAEDTAVYYCARLGYADYAYDLWGQGTLVTVSS | 
0.39 | EP15_max (scFv, from another filing) scFv: EIVMTQSPSTLSASVGDRVIITCQASENIYTSLAWYQQKPGKAPKLLIYSASTLASGVPSRFSGSGSGTEFTLTISSLQPDDFATYYCQQGFATSNVENPFGQGTKLTVLGGGGGSGGGGSGGGGSGGGGSEVQLVESGGGSVQPGGSLRLSCTVSGFSLSRYGVSWVRQAPGKGLEWVGAIGETGRAYYANWAKSRSTISRDTSKNTVYLQMNSLRAEDTATYYCARGEEFNNGWGAFNIWGQGTTVTVSS | 
 | 509-maxll (scFv, from another filing) scFv: EIVMTQSPSTLSASVGDRVIITCQASQNIRIWLSWYQQKPGKAPKLLIYKASTLESGVPSRFSGSGSGTEFTLTISSLQPDDFATYYCQNNAHYSTNGGTFGQGTKLTVLGGGGGSGGGGSGGGGSGGGGSEVQLVESGGGLVQPGGSLRLSCTASGFSLSSYYMSWVRQAPGKGLEWVGILDYVGDTDYASWAKGRFTISKDASKNTVYLQMNSLRAEDTAVYYCARTDDSRGWGLNIWGQGTLVTVSS | Rel. activity hVEGR1 comp. ELISA (EC50Luc[nM]/EC50test[nM]) [2]: 0.09; Kd [3]: 3.37 nM; koff [3]: 0.00282 s⁻¹; kon [3]: 838000 M⁻¹ s⁻¹
